These results are taken from patent publication US6635450 (FRED HUTCHINSON CANCER RESEARCH CENTER, dated 2003).

The assay addresses Cdk2 alone (baculoviral HA-tagged Cdk2 immunoadsorbed to sepharose beads) (UniProt P24941 1-298). The assay can be described thus: depletion of the Cdk2 inhibitor from Mv1Lu cell extracts on Cdk2 sepharose beads, read by cyclin E-associated H1 kinase activity. Here is the method: Cyclin E-Cdk2 sepharose was prepared by mixing 1.2 µl of Sf9 cell lysate containing Hemagglutinin tagged Cdk2 (Cdk2 -HA) with 12 µl lysate containing cyclin E in buffer A (30 mM HEPES-KCH pH 7.5, 7.5 mM MgCl_2, 1 mM DTT) containing 10 mM ATP and incubated at room temperature for 30 minutes to allow complete formation. The assembly reaction was then adjusted to 250 mM NaCl and 0.5% NP40. The Cdk2-HA containing complexes were immunoprecipitated with the 12CA5 monoclonal antibody (BABCO) and collected on protein A-sepharose. Cdk2 sepharose was prepared in an identical manner except cyclin E was omitted. Immunoprecipitates were washed twice with NP40 RIPA buffer ([…], 250 mM NaCl, 10 mM EDTA, 20 mM Tris-HCl pH 7.4) and four times with buffer A. The matrix was divided into 4 aliquots and incubated with 100 µg of cell extract in buffer A containing 3 mM ATP, 20 µg/ml creatine phosphokinase, 40 mM phospho-creatine for 45 minutes at 37° C. After incubation the supernatant was collected and assayed for Cdk2 activation by addition of recombinant cyclin E as described below. A critical parameter in the execution of this experiment is to ensure that no cyclin, Cdk or complex leaks from the beads into the cell extract. This is unpredictable and must be checked by immunoblotting each time the experiment is performed.

B1: p27 protein, the 27 kD cyclin E-Cdk2 binding protein of Mv1Lu mink epithelial cells (endogenous) (other)
chain: MSNVRVSNGSPSLERMDARQAEYPKPSACRNLFGPVNHEELTRDLEKHRRDMEEASQRKWNFDFQNHKPLEGKYEWQEVEKGSLPEFYYRPPRPPKGACKVPAQESQDVSGTRQAVPLMGSQANSEDTHLVDQKTDTADNQAGLAEQCTGIRKRPATDDSSPQNKRANRTEENVSDGS
notes: also called p27^Kip1; Kip1
Take B1: the binding result is listed as “no binding”.
